{
  "source": "patent US20250340643A1",
  "key": {"[1]": {"target": "recombinant FcRn (UniProt P55899)", "sequence (P55899 24-297 limits assumed, form in doubt, chain 1 of 2)": "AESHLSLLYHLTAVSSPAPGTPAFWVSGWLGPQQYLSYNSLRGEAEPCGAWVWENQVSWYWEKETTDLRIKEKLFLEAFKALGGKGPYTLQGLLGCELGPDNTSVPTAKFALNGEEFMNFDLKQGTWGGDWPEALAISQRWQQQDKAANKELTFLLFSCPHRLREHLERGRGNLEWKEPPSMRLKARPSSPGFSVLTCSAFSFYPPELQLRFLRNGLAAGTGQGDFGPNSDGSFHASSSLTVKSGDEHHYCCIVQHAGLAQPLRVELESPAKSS", "sequence (chain, as listed by the source limits assumed, form in doubt, chain 2 of 2)": "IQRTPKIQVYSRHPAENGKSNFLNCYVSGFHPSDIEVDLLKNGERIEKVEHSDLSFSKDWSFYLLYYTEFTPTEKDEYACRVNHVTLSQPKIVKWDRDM", "assay": "SPR, recombinant FcRn immobilized on the sensor; relative to Reference Standard"}, "[2]": {"target": "CTLA4 on the cells of the reporter gene bioassay (human) (UniProt P16410)", "sequence (P16410 36-223)": "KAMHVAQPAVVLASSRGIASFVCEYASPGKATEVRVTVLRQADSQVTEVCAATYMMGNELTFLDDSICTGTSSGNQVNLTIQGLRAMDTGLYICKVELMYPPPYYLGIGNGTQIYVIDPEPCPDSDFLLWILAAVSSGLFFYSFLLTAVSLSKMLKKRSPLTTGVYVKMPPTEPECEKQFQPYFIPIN", "assay": "cell-based or functional assay"}, "[3]": {"target": "CTLA-4 (as used in the CTLA-4 binding assay) (human) (UniProt P16410)", "sequence (P16410 36-161 limits assumed)": "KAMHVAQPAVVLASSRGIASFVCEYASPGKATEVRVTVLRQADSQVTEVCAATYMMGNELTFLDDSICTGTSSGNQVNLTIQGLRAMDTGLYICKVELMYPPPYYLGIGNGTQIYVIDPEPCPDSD", "assay": "CTLA-4 binding relative to tremelimumab Reference Standard; method not named for this table (competitive ELISA or SPR per the methods)"}},
  "data": [
    {"substance": "Tremelimumab IEC Fraction D (acidic peak 1), after pH 9 for 7 days (antibody)", "values": [
      {"measurement": "Rel. FcRn Binding (%)", "setting": "[1]", "result": 95, "unit": "%"},
      {"measurement": "Rel. Potency (%) (reporter gene bioassay)", "setting": "[2]", "result": 78, "unit": "%"},
      {"measurement": "Rel. CTLA-4 Binding (%)", "setting": "[3]", "result": 62, "unit": "%"}
    ]}
  ]
}
